We go through 44 molecules from patent US20220273759A1, “PHARMACEUTICAL ASSOCIATION FOR CONVERTING A NEOPLASTIC CELL INTO A NON-NEOPLASTIC CELL AND USES THEREOF” (HISTIDE AG, priority 2015, published 2022).

The test system of assay [1] is human osteosarcoma cells, MG63. Put plainly: Tumor cell recoding via quantification of pRB and p53 (immunofluorescence staining, ImageJ). The assay is classed as cell-based. The following applies: Table 6; peptide in association with PET; MG63 cells. How it is done:
The cells were first fixed for 20 min with 4% paraformaldehyde/PBS at 4° C. After fixation, the cells were permeabilized in PBS containing 1% Triton X-100 for 15 min. Protein immunofluorescent visualization was performed by first treating the cells with 1% (v/v) specific monoclonal antibodies for 1 hour at 37° C. Then the samples were incubated with Alexa Fluor® 568 or 647 (F(ab′)2 fragment of IgG(H+L)) during 30 min at room temperature. The cell nuclei were counterstained in 20 ng/mL DAPI for 10 min at room temperature.
For this type of quantification the freeware image analysis ImageJ® software was used. The raw image was first converted to an 8-bit file, and then the unsharp mask feature was used (settings 1:0.2) to remove the image background (rolling ball radius 10). After smoothing, the resulting image, which appears similar to the original photomicrograph but with minimal background, was then converted to a binary image by setting a threshold. Threshold values were determined empirically by selecting a setting, which gave the most accurate binary image for a subset of randomly selected photomicrographs. The cell area was determined by manual delineation on raw fluorescent images. Total contact area and mean contact area per cell were calculated by “analyse particules” in ImageJ®. A minimum of 50 cells per condition were analyzed.
Neoplastic cells (in this example osteosarcoma cells) were cultured on pharmaceutical associations comprising PET as a bioactive carrier and one of GFR-binding compounds of SEQ ID NO: 11 to 14, 24 to 26 and 51 to 63. A rapid (24 hours) decrease of the tumor markers was observed (FIG. 7). The adhesion checkpoint then activates the tumor suppressor proteins p53 and pRB. […]

The target of the next assay is growth factor receptors. The assay is described as follows: cell-based or functional assay.

As to “AASKASSVPQEEEPLPMVYY (Non-cyclic GFR-binding peptide) [SEQ ID NO: 207]”, in assay [1], the “P53 (%)” value was found to be 24% and the “pRB (%)” value was found to be 17%.
For “GIPEPSSAPTELSATSILYY (Non-cyclic GFR-binding peptide) [SEQ ID NO: 204]” the same measures were 33% and 16%.
The corresponding values for “GIPEPSSAPVDLKPLSTLYV (Non-cyclic GFR-binding peptide) [SEQ ID NO: 206]” are 32% and 12%.
The corresponding values for “KIPKASSVPTGGSNITVQIM (Non-cyclic GFR-binding peptide) [SEQ ID NO: 209]” are 45% and 11%.
For “KIPKASSVSQKMEPLTMLYY (Non-cyclic GFR-binding peptide) [SEQ ID NO: 208]”, in assay [1], the “P53 (%)” value amounted to 30% and the “pRB (%)” value is 12%.
With “NDEGLESVPEDLSSLSVLFF (Non-cyclic GFR-binding peptide) [SEQ ID NO: 201]”, in assay [1], the “P53 (%)” value came out at 29% and the “pRB (%)” value came out at 12%.
In the case of “RVPSTSSAPTKMNAISMLYF (Non-cyclic GFR-binding peptide) [SEQ ID NO: 203]”, in assay [1], the “P53 (%)” value was 31% and the “pRB (%)” value turned out to be 9%.
The corresponding values for “RVPSTSSVPTGQSAISTLYL (Non-cyclic GFR-binding peptide) [SEQ ID NO: 202]” are 25% and 10%.
For “STPPTSSVPTELSPISTLYK (Non-cyclic GFR-binding peptide) [SEQ ID NO: 205]” the same measures were 41% and 20%.
In the case of TKPTSTPTKLSPINMLYF [GFR-binding compound of SEQ ID NO: 65], the p-Smad1/5/8 (%) with growth factor receptors was found to be 36%.
On to ASAAPSSVPQALRSVKVAKV [GFR-binding compound of SEQ ID NO: 88], for which the p-Smad1/5/8 (%) with growth factor receptors turned out to be 37%.
Turning to KVGKASSVPTKLEPISILYL [GFR-binding compound of SEQ ID NO: 71], in the assay with growth factor receptors, the p-Smad1/5/8 (%) is 66%.
In the case of TQVKMRPVQVRKI [GFR-binding compound of SEQ ID NO: 92], the p-Smad1/5/8 (%) in the assay with growth factor receptors was determined as 44%.
In turn, KIPKASSVPQELEPLPIVYY [GFR-binding compound of SEQ ID NO: 74] returned a p-Smad1/5/8 (%) with growth factor receptors of 44%.
On the same count and under the same terms, under NDEGLESVPTEERSVKVAKV [GFR-binding compound of SEQ ID NO: 91] stands 55%.
Regarding GIPEPSSVPQKMEPLPIVYY [GFR-binding compound of SEQ ID NO: 75], in the assay with growth factor receptors, the p-Smad1/5/8 (%) was found to be 51%.
Still for that read-out and setting: the value for NDEGLESVPTEESSLSILFF [GFR-binding compound of SEQ ID NO: 80] was 27%; that for KASKASSVPQKLEPLPIVYY [GFR-binding compound of SEQ ID NO: 85] was 22%.
The same measure, in the same setting: under KIPKASSTPTELSPINMLYF [GFR-binding compound of SEQ ID NO: 93] stands 47%; under AVPKASSAPTKLEPISILYL [GFR-binding compound of SEQ ID NO: 70], 67%.
KIPKASSVPTELSPISVLYK [GFR-binding compound of SEQ ID NO: 87]: the p-Smad1/5/8 (%) with growth factor receptors stood at 32%.
NDEGLESVPTEEEPLTILYY [GFR-binding compound of SEQ ID NO: 79] displayed a p-Smad1/5/8 (%) with growth factor receptors of 58%.
On the same count and under the same terms, the value for ASAAPSSAPTALSATSVLYY [GFR-binding compound of SEQ ID NO: 82] was 41%.
In the assay with growth factor receptors, GIPEPSSTPTKMSPINMLYF [GFR-binding compound of SEQ ID NO: 94] returned a p-Smad1/5/8 (%) of 39%.
In the assay with growth factor receptors, ASASPSSVSQDLSSLSILFF [GFR-binding compound of SEQ ID NO: 68] registered a p-Smad1/5/8 (%) of 40%.
Take VVPKPSSAPTQLEPISILYL [GFR-binding compound of SEQ ID NO: 69]: the p-Smad1/5/8 (%) with growth factor receptors was determined as 39%.
Still for that read-out and setting: under SIPKASSTPTELSPINMLYF [GFR-binding compound of SEQ ID NO: 64] stands 37%; under RNVQSRPTQVQLKPLSMLYV [GFR-binding compound of SEQ ID NO: 73], 48%; under KVGKASSVPQKLEPLPIVYY [GFR-binding compound of SEQ ID NO: 84], 33%.
Regarding RNVQSRPTQVQLSPISILFI [GFR-binding compound of SEQ ID NO: 98], the p-Smad1/5/8 (%) in the assay with growth factor receptors stood at 34%.
As to RNVQSRPVPTQLSPISVLYK [GFR-binding compound of SEQ ID NO: 86], in the assay with growth factor receptors, the p-Smad1/5/8 (%) was found to be 26%.
Molecule ASASPSSVPQDLRSVKVAKV [GFR-binding compound of SEQ ID NO: 90] yielded a p-Smad1/5/8 (%) in the assay with growth factor receptors of 56%.
Take VPTGQSAISMLYL [GFR-binding compound of SEQ ID NO: 95]: the p-Smad1/5/8 (%) with growth factor receptors is 52%.
The same measure, in the same setting: under TVPKPSSAPTQLRSVKVAKV [GFR-binding compound of SEQ ID NO: 83] stands 35%; under ASASPSSVSQDLEPLTILYY [GFR-binding compound of SEQ ID NO: 78], 52%.
Same read-out and setting: under SSVKSQPSRVHHSPISILFI [GFR-binding compound of SEQ ID NO: 97] stands 39%.
In turn, ASAAPSSVPQALEPLTILYY [GFR-binding compound of SEQ ID NO: 77] returned a p-Smad1/5/8 (%) in the assay with growth factor receptors of 55%.
HVPKPSSAPTKLEPISILYL [GFR-binding compound of SEQ ID NO: 100] yielded a p-Smad1/5/8 (%) with growth factor receptors of 75%.
The same measure, in the same setting: the value for YVPKPSSAPTKLNAISVLYF [GFR-binding compound of SEQ ID NO: 99] was 66%; that for NDEGLESVPTEESAISMLYL [GFR-binding compound of SEQ ID NO: 96] was 78%; that for SSVKSQPSRVHHKPLSMLYV [GFR-binding compound of SEQ ID NO: 72] was 47%.
In turn, RVPSTSSAPTKTSATSVLYY [GFR-binding compound of SEQ ID NO: 81] registered a p-Smad1/5/8 (%) with growth factor receptors of 34%.
In turn, SIPKASSVPQELEPLPIVYY [GFR-binding compound of SEQ ID NO: 76] had a p-Smad1/5/8 (%) in the assay with growth factor receptors of 54%.
In the assay with growth factor receptors, VSQDLRSVKVAKV [GFR-binding compound of SEQ ID NO: 89] yielded a p-Smad1/5/8 (%) of 36%.
